# T1: Translationally-Controlled Tumor Protein (TCTP) (human, UniProt P13693 1-172)
# T1 construct: Endogenous TCTP in LNCaP cell lysates, immunoprecipitated with rabbit anti-TCTP antibody (Abcam); also called translationally-controlled tumour protein
# T1 sequence: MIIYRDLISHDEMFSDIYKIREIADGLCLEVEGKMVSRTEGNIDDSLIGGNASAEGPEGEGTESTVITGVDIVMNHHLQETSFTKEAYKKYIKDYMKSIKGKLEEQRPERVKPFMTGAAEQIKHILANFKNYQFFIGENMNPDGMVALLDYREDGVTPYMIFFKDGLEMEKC
# B1: Hsp27 C1 deletion mutant (amino acids 93 to 205 of SEQ ID NO: 16), histidine-tagged (other, not shown: small tags and cut ends)
# chain: DRWRVSLDVNHFAPDERTVKTKDGVVEISGKHEELQDEHGYISRCFTRKYTLPPGVDPTQVSSSLSPEGTLTVEAPMPKLATQSNEITIPVTFESRAQLGGPEAAKSDETAAK
# notes: Transiently expressed in LNCaP cells
# Target: T1, Translationally-Controlled Tumor …
# Assay: not named at this place (co-immunoprecipitation of Example 12)
binder,measurement,value
B1,binding result,binds

# — patent US20150216891A1 (INSTITUT NATIONAL DE LA SANTE ET DE LA RECHERCHE MEDICALE …, published 2015)
